Earlier results on one substance are cited in publication PMC11987431.

For the series, the target named is IL-6 receptor (Rattus norvegicus) (UniProt P22273).
Chain of UniProt P22273 (P22273 20-364, chain 1 of 2): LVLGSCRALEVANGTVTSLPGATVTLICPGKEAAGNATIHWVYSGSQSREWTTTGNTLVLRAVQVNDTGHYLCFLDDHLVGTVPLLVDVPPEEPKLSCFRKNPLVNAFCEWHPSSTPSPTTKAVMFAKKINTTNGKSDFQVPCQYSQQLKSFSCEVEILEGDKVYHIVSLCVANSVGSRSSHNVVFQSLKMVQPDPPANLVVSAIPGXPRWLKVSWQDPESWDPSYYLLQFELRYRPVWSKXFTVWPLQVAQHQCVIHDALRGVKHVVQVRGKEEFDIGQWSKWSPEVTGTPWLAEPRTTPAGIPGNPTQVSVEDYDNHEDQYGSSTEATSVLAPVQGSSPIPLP
Chain of UniProt P22273 (P40190 23-618, chain 2 of 2, further chain): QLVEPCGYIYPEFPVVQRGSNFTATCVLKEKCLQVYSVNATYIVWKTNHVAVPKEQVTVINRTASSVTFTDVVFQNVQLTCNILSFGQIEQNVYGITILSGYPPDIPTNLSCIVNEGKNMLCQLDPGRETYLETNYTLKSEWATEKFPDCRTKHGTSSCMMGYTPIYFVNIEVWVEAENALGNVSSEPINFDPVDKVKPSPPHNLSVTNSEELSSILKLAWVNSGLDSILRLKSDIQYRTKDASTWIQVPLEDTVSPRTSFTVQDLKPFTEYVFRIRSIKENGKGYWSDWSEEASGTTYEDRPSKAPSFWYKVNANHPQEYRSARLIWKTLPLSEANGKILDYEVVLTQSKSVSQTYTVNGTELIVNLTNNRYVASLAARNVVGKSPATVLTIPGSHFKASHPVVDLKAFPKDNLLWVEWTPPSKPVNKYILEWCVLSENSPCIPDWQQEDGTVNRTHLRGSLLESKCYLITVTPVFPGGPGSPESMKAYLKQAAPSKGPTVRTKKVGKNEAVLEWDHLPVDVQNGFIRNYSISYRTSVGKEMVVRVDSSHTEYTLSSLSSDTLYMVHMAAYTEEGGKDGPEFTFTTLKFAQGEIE

Chain of IL-6 (P20607 25-211): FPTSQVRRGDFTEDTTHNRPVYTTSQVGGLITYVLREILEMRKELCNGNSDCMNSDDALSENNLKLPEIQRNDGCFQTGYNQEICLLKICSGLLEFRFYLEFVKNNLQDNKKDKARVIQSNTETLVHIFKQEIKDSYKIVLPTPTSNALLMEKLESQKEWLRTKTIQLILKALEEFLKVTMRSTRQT

As for IL-6 (from UniProt P20607), the Kd was 0.015 nM.

In general, Kd refers to the constant that tells how readily two partners part at equilibrium.
